These results are taken from US20230192818A1.

For this experiment, the target named is biotinylated SARS-CoV-2 S1 variant B.1.351 (Example 5) (SARS-CoV-2) (UniProt P0DTC2). The experiment is described as follows: phage ELISA screening. (In general: ELISA stands for enzyme-linked immunosorbent assay.)

B1: 11-3 (antibody, V domains shown)
VH: QVQLVESGGGVVQPGRSLRLSCAASGFTFSNFAMHWVRQAPGKGLEWVAVISYDGNHEYYADSVKGRFTISRDNSKNTLYLQMNSLRAEDTAVYYCAKTNSGSYGGMFDYWGQGTLVTVSS
VL: EIVLTQSPATLSLSPGERATLSCRASQNIGNHLAWYQQKPGQAPRLLIYDASNRATGIPARFSGSGSGTDFTLTISSLEPEDFAVYYCQQRDNGPPEGTFGGGTKVEIK
B1 had an ELISA of 17.3.

B2: 12-9 (antibody, V domains shown)
VH: QVQLVESGGGVVQPGRSLRLSCAASGFTFSSYGMHWVRQAPGKGLEWVAVISYDGTTEYYADSVKGRFTISRDNSKNTLYLQMNSLRAEDTAVYYCARPSSGSYLGFFDYWGQGTLVTVSS
VL: EIVLTQSPATLSLSPGERATLSCRASQSVSTSLAWYQQKPGQAPRLLIYDATNRATGIPARFSGSGSGTDFTLTISSLEPEDFAVYYCQRRTDWPPTFGGGTKVEIK
For B2, the ELISA is 19.9.

B3: 12-4 (antibody, V domains shown)
VH: QVQLVESGGGVVQPGRSLRLSCAASGFTFSYYGMHWVRQAPGKGLEWVAVISYDGTNDYYADSVKGRFTISRDNSKNTLYLQMNSLRAEDTAVYYCAKPHSGSYRGYFDYWGQGTLVTVSS
VL: EIVLTQSPATLSLSPGERATLSCRASQSVGSHLAWYQQKPGQAPRLLIYDASNRATGIPARFSGSGSGTDFTLTISSLEPEDFAVYYCQQISNWPLTFGGGTKVEIK
On to B3, for which the ELISA was found to be 23.5.

B4: 12-7 (antibody, V domains shown)
VH: QVQLVESGGGVVQPGRSLRLSCAASGFTFSIYAMHWVRQAPGKGLEWVAVISYDGTNEYYADSVKGRFTISRDNSKNTLYLQMNSLRAEDTAVYYCAKSRGGSYYGAFDYWGQGTLVTVSS
VL: EIVLTQSPATLSLSPGERATLSCRASQSLGNYLAWYQQKPGQAPRLLIYDSSNRATGIPARFSGSGSGTDFTLTISSLEPEDFAVYYCQQRTDWPPSFGGGTKVEIK
Consider B4, for which the ELISA worked out at 22.2.

B5: 11-4 (antibody, V domains shown)
VH: QVQLVESGGGVVQPGRSLRLSCAASGFTFDNYAMHWVRQAPGKGLEWVAVISDDGRNKYYADSVKGRFTISRDNSKNTLYLQMNSLRAEDTAVYYCAKDNYYDSSGYYGGGMDVWGQGTLVTVSS
VL: EIVLTQSPATLSLSPGERATLSCRASQSVGSYLAWYQQKPGQAPRLLIYDAVNRATGIPARFSGSGSGTDFTLTISSLEPEDFAVYYCQQRFTWPTTFGGGTKVEIK
Consider B5, for which the ELISA is 16.3.

B6: 11-16 (antibody, V domains shown)
VH: QVQLVESGGGVVQPGRSLRLSCAASGFTFSDHYMHWVRQAPGKGLEWVAVISYDGSNEYYADSVKGRFTISRDNSKNTLYLQMNSLRAEDTAVYYCAKDLGPAGVDYWGQGTLVTVSS
VL: EIVLTQSPATLSLSPGERATLSCRASQSLGRYLAWYQQKPGQAPRLLIYDSSNRATGIPARFSGSGSGTDFTLTISSLEPEDFAVYYCQQYGDWPETFGGGTKVEIK
In the case of B6, the ELISA came to 4.65.

B7: 11-10 (antibody, V domains shown)
VH: QVQLVESGGGVVQPGRSLRLSCAASGFIFNNYGMHWVRQAPGKGLEWVAVISYDGSNIYYADSVKGRFTISRDNSKNTLYLQMNSLRAEDTAVYYCARDYNDGIGSYTGAFDSWGQGTLVTVSS
VL: EIVLTQSPATLSLSPGERATLSCRASQSVSTSLAWYQQKPGQAPRLLIYDATNRATGIPARFSGSGSGTDFTLTISSLEPEDFAVYYCQQHYSWPLTFGGGTKVEIK
Consider B7, for which the ELISA stood at 7.06.

B8: 12-2 (antibody, V domains shown)
VH: QVQLVESGGGVVQPGRSLRLSCAASGFIFRSYAMHWVRQAPGKGLEWVAVISYDGSSKYYADSVKGRFTISRDNSKNTLYLQMNSLRAEDTAVYYCARPSSGSYFPPFDYWGQGTLVTVSS
VL: EIVLTQSPATLSLSPGERATLSCRASQSVDSRLAWYQQKPGQAPRLLIYDTSNRATGIPARFSGSGSGTDFTLTISSLEPEDFAVYYCQQRSTWPPVFGGGTKVEIK
In turn, B8 showed an ELISA of 25.9.

B9: 11-6 (antibody, V domains shown)
VH: QVQLVESGGGVVQPGRSLRLSCAASGFTFGTYAMHWVRQAPGKGLEWVAVVSTEGGTTYYADSVKGRFTISRDNSKNTLYLQMNSLRAEDTAVYYCAGEYYDSSGSSIDYWGQGTLVTVSS
VL: EIVLTQSPATLSLSPGERATLSCRASQSVDSSLAWYQQKPGQAPRLLIYDASNRATGIPARFSGSGSGTDFTLTISSLEPEDFAVYYCQQQSNWPGTFGGGTKVEIK
Turning to B9, the ELISA was determined as 12.6.

B10: 12-5 (antibody, V domains shown)
VH: QVQLVESGGGVVQPGRSLRLSCAASGFTFSYYGMHWVRQAPGKGLEWVAVTSYDGSNKYYSDSVKGRFTISRDNSKNTLYLQMNSLRAEDTAVYYCARPKSGSYATYFDYWGQGTLVTVSS
VL: EIVLTQSPATLSLSPGERATLSCRASQNVGQSLAWYQQKPGQAPRLLIYDASNRATGIPARFSGSGSGTDFTLTISSLEPEDFAVYYCQQRENWPPTFGGGTKVEIK
As to B10, the ELISA amounted to 22.8.

B11: 11-15 (antibody, V domains shown)
VH: QVQLVESGGGVVQPGRSLRLSCAASGFIFSNYGMHWVRQAPGKGLEWVAVISYDGSDKYYADSVKGRFTISRDNSKNTLYLQMNSLRAEDTAVYYCARDDYMYGFEHWGQGTLVTVSS
VL: EMVVPQSPPTVSLSPGERATLSCRASQSVGSYLAWYQQKPGQAPRLLIYDAVNRATGIPARFSGSGSGTDFTLTISSLEPEDFAVYYCQQRSDSITFGGGTKVEIK
In turn, B11 came in with an ELISA of 4.97.

B12: 11-1 (antibody, V domains shown)
VH: QVQLVESGGGVVQPGRSLRLSCAASGFTFGSYGMHWVRQAPGKGLEWVAVISYDGGDEYYADSVKGRFTISRDNSKNTLYLQMNSLRAEDTAVYYCARDISRYGYYGMDVWGQGTLVTVSS
VL: EIVLTQSPATLSLSPGERATLSCRASQSLGSFLAWYQQKPGQAPRLLIYDASNRATGIPARFSGSGSGTDFTLTISSLEPEDFAVYYCQQRALWPRLTFGGGTKVEIK
Consider B12, for which the ELISA was 21.7.

B13: 11-18 (antibody, V domains shown)
VH: QVQLVESGGGVVQPGRSLRLSCAASGFTFGTYAMHWVRQAPGKGLEWVAVISYDGNNKYYADSVKGRFTISRDNSKNTLYLQMNSLRAEDTAVYYCAKTGSGSYYSWFDYWGQGTLVTVSS
VL: EIVLTQSPATLSLSPGERATLSCRASQSLTSYLAWYQQKPGQAPRLLIYDASNRATGIPARFSGSGSGTDFTLTISSLEPEDFAVYYCQQRHYWPPITFGGGTKVEIK
B13 registered an ELISA of 3.7.

B14: 12-8 (antibody, V domains shown)
VH: QVQLVESGGGVVQPGRSLRLSCAASGFTFNNYVMHWVRQAPGKGLEWVAVISYDGTNDYYADSVKGRFTISRDNSKNTLYLQMNSLRAEDTAVYYCARGESGSYWGAFDYWGQGTLVTVSS
VL: EIVLTQSPATLSLSPGERATLSCRASQNIGNHLAWYQQKPGQAPRLLIYDVSNRATGIPARFSGSGSGTDFTLTISSLEPEDFAVYYCQQRKSWPPFTFGGGTKVEIK
B14 displayed an ELISA of 21.4.

B15: 12-10 (antibody, V domains shown)
VH: QVQLVESGGGVVQPGRSLRLSCAASGFIFRSYAMHWVRQAPGKGLEWVAVISYDGSIKYYADSVKGRFTISRDNSKNTLYLQMNSLRAEDTAVYYCARTRGGSYYGAFDYWGQGTLVTVSS
VL: EIVLTQSPATLSLSPGERATLSCRASQSVNSDLAWYQQKPGQAPRLLIYDASNRATGIPARFSGSGSGTDFTLTISSLEPEDFAVYYCQQRTDWPPATFGGGTKVEIK
The molecule B15 displayed an ELISA of 19.7.

B16: 11-2 (antibody, V domains shown)
VH: QVQLVESGGGVVQPGRSLRLSCAASGFTFGTYAMHWVRQAPGKGLEWVAVVSTEGGTTYYADSVKGRFTISRDNSKNTLYLQMNSLRAEDTAVYYCAGSYGAYFDYWGQGTLVTVSS
VL: EIVLTQSPATLSLSPGERATLSCRASQSVNSYLAWYQQKPGQAPRLLIYDVSNRATGIPARFSGSGSGTDFTLTISSLEPEDFAVYYCQQFSNWPTFGGGTKVEIK
In turn, B16 showed an ELISA of 19.4.

B17: 11-9 (antibody, V domains shown)
VH: QVQLVESGGGVVQPGRSLRLSCAASGFTFGTYAMHWVRQAPGKGLEWVAVVSTEGGTTYYADSVKGRFTISRDNSKNTLYLQMNSLRAEDTAVYYCAGSYGAYFDYWGQGTLVTVSS
VL: EIVLTQSPATLSLSPGERATLSCRASQSVSYYLAWYQQKPGQAPRLLIYDSSNRATGIPARFSGSGSGTDFTLTISSLEPEDFAVYYCQQRSNWQGNFGGGTKVEIK
B17 showed an ELISA of 9.14.

B18: 12-6 (antibody, V domains shown)
VH: QVQLVESGGGVVQPGRSLRLSCAASGFIFRNYAMHWVRQAPGKGLEWVAVISYDGSNKYYADSVKGRFTISRDNSKNTLYLQMNSLRAEDTAVYYCARPRGGSYHGAFDIWGQGTLVTVSS
VL: EIVLTQSPATLSLSPGERATLSCRASQSLGNYLAWYQQKPGQAPRLLIYDSSNRATGIPARFSGSGSGTDFTLTISSLEPEDFAVYYCQQRNWPYTFGGGTKVEIK
B18 displayed an ELISA of 22.4.

B19: 11-20 (antibody, V domains shown)
VH: QVQLVESGGGVVQPGRSLRLSCAASGFTFDDYAMHWVRQAPGKGLEWVAVISYDGSNKYYADSVKGRFTISRDNSKNTLYLQMNSLRAEDTAVYYCASPHSGSYWAAFDIWGQGTLVTVSS
VL: EIVLTQSPATLSLSPGERATLSCRASQSVGSYLAWYQQKPGQAPRLLIYDAVNRATGIPARFSGSGSGTDFTLTISSLEPEDFAVYYCQQRSLWPFGGGTKVEIK
In turn, B19 registered an ELISA of 3.42.

B20: 12-1 (antibody, V domains shown)
VH: QVQLVESGGGVVQPGRSLRLSCAASGFTFSYYGMHWVRQAPGKGLEWVAVTSYDGSNKYYADSVKGRFTISRDNSKNTLYLQMNSLRAEDTAVYYCARPQGGSYFAAFDIWGQGTLVTVSS
VL: EIVLTQSPATLSLSPGERATLSCRASQSVSSHLAWYQQKPGQAPRLLIYDVSNRATGIPARFSGSGSGTDFTLTISSLEPEDFAVYYCQQRDTFTFGGGTKVEIK
Turning to B20, the ELISA stood at 29.2.

B21: 11-11 (antibody, V domains shown)
VH: QVQLVESGGGVVQPGRSLRLSCAASGFTFDNYAMHWVRQAPGKGLEWVAVISYDGSNKYYADSVKGRFTISRDNSKNTLYLQMNSLRAEDTAVYYCLREGILWDVWGQGTLVTVSS
VL: EIVLTQSPATLSLSPGERATLSCRASHNINNFLAWYQQKPGQAPRLLIYDTSNRATGIPARFSGSGSGTDFTLTISSLEPEDFAVYYCQQGRNWPPSSFGGGTKVEIK
In turn, B21 yielded an ELISA of 6.43.
